Measurements: PMC3436577 (The Journal of Biological Chemistry, 2012)

How the values were obtained:
Experiment in all cases: pull-down
c/Nip1-His Box12-WWPW = c/Nip1-His Box12-WWPW (S. cerevisiae, UniProt P32497 1-812, V111W | V112W | K116P | K118W)
c/Nip1-His Box15-2 = c/Nip1-His Box15-2 (S. cerevisiae, UniProt P32497 1-812, I142V | E145W | F146T | D147L | I149R)
[1] = target: c/Nip1-His GAP85 (Δ60–144) (S. cerevisiae, UniProt P32497 1-812, Δ60–144)
GST-eIF1 = GST-eIF1 (S. cerevisiae, UniProt P32911 1-108)
GST-eIF1, sequence (P32911 whole entry): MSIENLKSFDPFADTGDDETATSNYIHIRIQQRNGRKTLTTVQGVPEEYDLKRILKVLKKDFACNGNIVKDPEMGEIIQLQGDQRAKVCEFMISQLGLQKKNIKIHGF

| Binder | reduction of eIF5 associated in vivo, relative to WT c/Nip1-His (c/Nip1-His Box12-WWPW) [%] | reduction of eIF5 associated in vivo, relative to WT c/Nip1-His (c/Nip1-His Box15-2) [%] | reduction of eIF5 associated in vivo, relative to WT c/Nip1-His [1] [%] | fold increase in binding relative to the WT c/Nip1-NTD (GST-eIF1) [fold] |
| --- | --- | --- | --- | --- |
| eIF5 (natural protein) MSINICRDNHDPFYRYKMPPIQAKVEGRGNGIKTAVLNVADISHALNRPAPYIVKYFGFELGAQTSISVDKDRYLVNGVHEPAKLQDVLDGFINKFVLCGSCKNPETEIIITKDNDLVRDCKACGKRTPMDLRHKLSSFILKNPPDSVSGSKKKKKAATASANVRGGGLSISDIAQGKSQNAPSDGTGSSTPQHHDEDEDELSRQIKAAASTLEDIEVKDDEWAVDMSEEAIRARAKELEVNSELTQLDEYGEWILEQAGEDKENLPSDVELYKKAAELDVLNDPKIGCVLAQCLFDEDIVNEIAEHNAFFTKILVTPEYEKNFMGGIERFLGLEHKDLIPLLPKILVQLYNNDIISEEEIMRFGTKSSKKFVPKEVSKKVRRAAKPFITWLETAESDDDEEDDE | ~30 | > 60 | > 60 |  |
| c/Nip1-NTD (1–270) Box12-SPW (domain or fragment, 35S-labeled) MSRFFSSNYEYDVASSSSEEDLLSSSEEDLLSSSSSESELDQESDDSFFNESESESEADVDSDDSDAKPYGPDWFKKSEFRKQGGGSNKFLKSSNYDSSDEESDEEDGKKVVSSAPEWLLDEMQDVYNKISQAENSDDWLTISNEFDLISRLLVRAQQQNWGTPNIFIKVVAQVEDAVNNTQQADLKNKAVARAYNTTKQRVKKVSRENEDSMAKFRNDPESFDKEPTADLDISANGFTISSSQGNDQAVQEDFFTRLQTIIDSRGKKTV |  |  |  | ~2 |
